Results published in the supplement of paper PMC7125110.
± gives the standard error. For some of these results: Variants at the floor of the assay were thinned out.

B1: glmS ribozyme (parent)
chain: AUAAAAGCGCCAGAACUACAGAAAUGUAGUUGACGAGGAGGAGGUUUAUCGAAUUUUCGGCGGAUGCCUCCAAA

Tests used:
Conditions in all cases: with glucosamine-6-phosphate
[1] = variants of: B1; experiment: kcat; higher = faster cleavage; RNA array
Summary of the method: (§1)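 E. coli RNA polymerase transcribed barcoded ribozyme variants in situ on sequenced MiSeq chips, which were tracked via a hybridised Cy3 probe at 37 °C. Tiles were imaged over ~14 h after glucosamine-6-phosphate (40 μM to 10 mM) in HEPES/KCl/Mg(OAc)2 buffer was flowed in. Normalised per-tile medians were fit to one- or two-exponential decays for kobs, and kcat and KM came from weighted Michaelis–Menten fits.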

[2] = variants of: B1; experiment: self-cleavage kobs at 40 uM GlcN6P; higher = faster cleavage; RNA array
Summary of the method: as §1

[3] = variants of: B1; experiment: self-cleavage kobs at 160 uM GlcN6P; higher = faster cleavage; RNA array
Summary of the method: as §1

[4] = variants of: B1; experiment: self-cleavage kobs at 2500 uM GlcN6P; higher = faster cleavage; RNA array
Summary of the method: as §1

[5] = variants of: B1; experiment: KM; higher = weaker cofactor use; RNA array
Summary of the method: as §1

[6] = variants of: B1; experiment: self-cleavage kobs at 640 uM GlcN6P; higher = faster cleavage; RNA array
Summary of the method: as §1

[7] = variants of: B1; experiment: self-cleavage kobs at 10000 uM GlcN6P; higher = faster cleavage; RNA array
Summary of the method: as §1

Row | Variant | kcat [1] [s⁻¹] | self-cleavage kobs at 40 uM GlcN6P [2] [s⁻¹] | self-cleavage kobs at 160 uM GlcN6P [3] [s⁻¹] | self-cleavage kobs at 2500 uM GlcN6P [4] [s⁻¹] | KM [5] [µM] | self-cleavage kobs at 640 uM GlcN6P [6] [s⁻¹] | self-cleavage kobs at 10000 uM GlcN6P [7] [s⁻¹]
1 | C50G G62A | 0.000121 ± 5.5e-05 | 3.58e-05 ± 1.1e-05 | 0.000128 ± 2.4e-05 | 0.000168 ± 3.3e-05 | – | – | –
2 | A48C C71U | 0.000393 ± 1.6e-05 | – | – | 0.000123 ± 1.7e-05 | 5220 ± 390 | 4.42e-05 ± 7.8e-06 | 0.00026 ± 2.4e-05
3 | C50U U55A | 8.88e-05 ± 8.3e-06 | – | – | 4.32e-05 ± 6.8e-06 | 2350 ± 570 | 2.43e-05 ± 9.1e-06 | 7.37e-05 ± 9.9e-06
4 | U49C C58G | < 1e-05 | – | – | – | – | – | < 1e-05
5 | A48C C68G | < 1e-05 | < 1e-05 | – | – | – | – | < 1e-05
6 | C50G A53G | 4.4e-05 ± 2.2e-05 | – | – | 3.81e-05 ± 1.5e-05 | – | – | –
7 | A52C U69A | 1.76e-05 ± 5.9e-06 | – | – | – | – | – | –
8 | A48G C70G | 6.2e-05 ± 1.1e-05 | – | – | 7.26e-05 ± 1.6e-05 | – | 8.57e-05 ± 1.8e-05 | 5.25e-05 ± 9.4e-06
9 | A48G U69C | 9.33e-05 ± 2.9e-05 | – | – | 9.27e-05 ± 3.5e-05 | – | – | 7.34e-05 ± 2.5e-05
10 | G51C U69G | 1.7e-05 ± 4.2e-06 | – | – | – | – | – | –
11 | A48U A64G | 0.00341 ± 0.00044 | 2.41e-05 ± 7.5e-06 | 8.32e-05 ± 1.7e-05 | 0.0012 ± 0.00016 | 5500 ± 1100 | 0.000385 ± 7.8e-05 | 0.00214 ± 0.00022
12 | A48U U54A | 0.000682 ± 2.5e-05 | – | 3.6e-05 ± 1.3e-05 | 0.00029 ± 7.8e-05 | 3130 ± 210 | 0.000113 ± 2.8e-05 | 0.000524 ± 7.9e-05
13 | U47G C71A | 0.00107 ± 0.00043 | 5.64e-05 ± 1.4e-05 | – | 0.000556 ± 0.0001 | – | 0.000443 ± 0.0001 | 0.00146 ± 0.0002
14 | U49G U55A | 0.00113 ± 0.0001 | – | 6.19e-05 ± 9.7e-06 | 0.000539 ± 5.5e-05 | 2740 ± 370 | 0.000213 ± 2.8e-05 | 0.000891 ± 0.00013
15 | C50G G60A | 4.61e-05 ± 2.1e-05 | – | 7.6e-05 ± 1.9e-05 | 4.5e-05 ± 1.8e-05 | – | – | –
16 | A52G A64G | 0.00183 ± 0.00049 | 2.83e-05 ± 7.3e-06 | 6.03e-05 ± 9.6e-06 | 0.000616 ± 0.0001 | 3690 ± 1500 | 0.00036 ± 3.9e-05 | 0.00136 ± 0.00013
17 | G51U G60C C70G | 1.22e-05 ± 2.5e-06 | < 1e-05 | – | – | – | – | –
18 | A48G C50A G63A | < 1e-05 | – | < 1e-05 | – | – | – | < 1e-05

Row | Variant | kcat [1] [s⁻¹] | self-cleavage kobs at 40 uM GlcN6P [2] [s⁻¹] | self-cleavage kobs at 160 uM GlcN6P [3] [s⁻¹] | self-cleavage kobs at 2500 uM GlcN6P [4] [s⁻¹] | KM [5] [µM] | self-cleavage kobs at 640 uM GlcN6P [6] [s⁻¹] | self-cleavage kobs at 10000 uM GlcN6P [7] [s⁻¹]
19 | G51A C68G | 3.03e-05 ± 1.4e-05 | – | – | – | – | – | –
20 | A48C C70U | 0.000564 ± 5.5e-05 | – | – | 0.000254 ± 3.9e-05 | 3470 ± 540 | 8.59e-05 ± 1.5e-05 | 0.000401 ± 7.4e-05
21 | U49G A64U | 1.18e-05 ± 9.4e-07 | < 1e-05 | < 1e-05 | – | – | – | –
22 | A52G A53U | 0.000266 ± 2.2e-05 | – | – | 0.000176 ± 3.4e-05 | 1900 ± 430 | 6.4e-05 ± 1.5e-05 | 0.000219 ± 2.3e-05
23 | U49A C68A | 1.25e-05 ± 6e-06 | < 1e-05 | – | – | – | – | < 1e-05
24 | U49A C68G | 2.5e-05 ± 5.3e-06 | – | – | – | – | – | –
25 | U47G A53G | 0.00632 ± 0.0012 | 0.000319 ± 4.7e-05 | 0.000975 ± 0.00019 | 0.00362 ± 0.00064 | 804 ± 250 | 0.00317 ± 0.00055 | 0.0074 ± 0.00097
26 | G51U C68U | < 1e-05 | – | – | – | – | – | –
27 | U49A C67U | < 1e-05 | < 1e-05 | – | – | – | – | < 1e-05
28 | A48C U55C | 0.000419 ± 0.00015 | – | – | 0.000327 ± 4.9e-05 | – | 6.73e-05 ± 1.2e-05 | 0.00029 ± 4.9e-05
29 | A48C U55A | 0.000411 ± 0.0001 | – | – | 0.000276 ± 4.6e-05 | 2110 ± 920 | 8.73e-05 ± 1.8e-05 | 0.000272 ± 8.7e-05
30 | A52G U57A | 0.000484 ± 0.00016 | – | 4.1e-05 ± 1.6e-05 | 0.00023 ± 2.4e-05 | – | 6.62e-05 ± 9.6e-06 | 0.000289 ± 8e-05
31 | A52G U57C | 0.000378 ± 1.3e-05 | – | 2.83e-05 ± 1.3e-05 | 0.000227 ± 3.1e-05 | 1790 ± 110 | 9.94e-05 ± 1e-05 | 0.000314 ± 4.4e-05
32 | U47A U65C | 0.000833 ± 0.00017 | – | – | 0.000533 ± 0.00012 | 2410 ± 980 | 0.000158 ± 3.6e-05 | 0.000645 ± 0.00011
33 | U47A U65G | 0.00507 ± 0.0003 | 5.62e-05 ± 9.4e-06 | 0.000236 ± 6.6e-05 | 0.00229 ± 0.00035 | 3540 ± 320 | 0.000735 ± 0.00012 | 0.00369 ± 0.00037
34 | U47C C70A | 0.000334 ± 9.1e-05 | – | – | 0.000426 ± 9.7e-05 | – | 0.000119 ± 2.1e-05 | 0.000264 ± 4.8e-05
35 | U47C U49C | < 1e-05 | – | – | – | – | < 1e-05 | –
36 | U47G U57G | 6.2e-05 ± 9.2e-06 | – | – | 6.68e-05 ± 2.2e-05 | – | – | 5.61e-05 ± 1.2e-05
